2 substances from article doi:10.1101/2021.04.13.439655 can be followed below.

In assay [1] the target is extended construct of the non-phosphorylated Smad2 MH2 domain (S2LMH2). Kind of assay: SAXS with ensemble optimization method.
Assay [2] has as its target full-length phosphomimetic Smad2 (S2FLEEE) (UniProt Q15796). Kind of assay: SAXS with ensemble optimization method.

Sequence of extended construct of the non-phosphorylated Smad2 MH2 domain (S2LMH2) (domain or fragment) (Q15796 269-467): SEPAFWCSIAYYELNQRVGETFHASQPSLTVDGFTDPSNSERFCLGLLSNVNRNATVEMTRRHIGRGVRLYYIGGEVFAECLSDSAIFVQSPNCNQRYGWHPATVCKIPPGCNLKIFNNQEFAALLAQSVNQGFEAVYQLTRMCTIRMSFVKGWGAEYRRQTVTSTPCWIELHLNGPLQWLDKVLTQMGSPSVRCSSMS
Sequence of full-length phosphomimetic Smad2 (S2FLEEE) (from UniProt Q15796 1-467) (natural protein) (Q15796 whole entry): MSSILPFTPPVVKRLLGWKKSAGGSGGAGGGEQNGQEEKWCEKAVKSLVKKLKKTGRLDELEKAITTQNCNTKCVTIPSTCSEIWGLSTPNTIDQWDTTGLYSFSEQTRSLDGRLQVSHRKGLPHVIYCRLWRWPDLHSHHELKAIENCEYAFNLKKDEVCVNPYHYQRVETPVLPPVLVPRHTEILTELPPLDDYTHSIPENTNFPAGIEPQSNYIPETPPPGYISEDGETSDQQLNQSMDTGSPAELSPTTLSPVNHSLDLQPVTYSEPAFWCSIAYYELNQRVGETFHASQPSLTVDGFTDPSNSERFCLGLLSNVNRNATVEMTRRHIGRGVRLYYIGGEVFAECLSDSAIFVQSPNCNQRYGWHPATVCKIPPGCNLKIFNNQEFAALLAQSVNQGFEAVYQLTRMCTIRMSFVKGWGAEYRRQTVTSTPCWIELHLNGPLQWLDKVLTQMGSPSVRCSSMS

The term stoichiometry N denotes the number of molecules, sites or subunits per partner or assembly. As to “extended construct of the non-phosphorylated Smad2 MH2 domain (S2LMH2) (domain or fragment)”, in assay [1], the percent of the total population as trimer at 15 and 30 μM came out at 50%; the stoichiometry N was found to be 3.
In assay [2], “full-length phosphomimetic Smad2 (S2FLEEE) (from UniProt Q15796 1-467) (natural protein)” registered a percent of the population as dimer at all concentrations analyzed of 36% and a percent of the population as trimer at 28.1 μM of 44.8%.
